Reference: US20250304643A1 (BAINAN BIOTECH, published 2025)
*1 amine or outer side, *2 acyl side, *3 side chain or, on linkers, in order; H or OH if unused. Where no end group is shown, it is not given here. Side-chain parts run from the residue outwards. [ ]: non-standard residue; d: D form. The star is where a group is joined. C16 diacid = O=C(O)CCCCCCCCCCCCCCC(=O)*; γGlu = O=C(O)[C@H](CCC(=O)[*:2])N[*:1]; Palmitoyl = CCCCCCCCCCCCCCCC(=O)*; Decanoyl = CCCCCCCCCC(=O)*; Aib = CC(C)(N)C(=O)O

T1: human glucose-dependent insulinotropic polypeptide receptor (human, UniProt P48546 22-466)
T1 sequence (looked up): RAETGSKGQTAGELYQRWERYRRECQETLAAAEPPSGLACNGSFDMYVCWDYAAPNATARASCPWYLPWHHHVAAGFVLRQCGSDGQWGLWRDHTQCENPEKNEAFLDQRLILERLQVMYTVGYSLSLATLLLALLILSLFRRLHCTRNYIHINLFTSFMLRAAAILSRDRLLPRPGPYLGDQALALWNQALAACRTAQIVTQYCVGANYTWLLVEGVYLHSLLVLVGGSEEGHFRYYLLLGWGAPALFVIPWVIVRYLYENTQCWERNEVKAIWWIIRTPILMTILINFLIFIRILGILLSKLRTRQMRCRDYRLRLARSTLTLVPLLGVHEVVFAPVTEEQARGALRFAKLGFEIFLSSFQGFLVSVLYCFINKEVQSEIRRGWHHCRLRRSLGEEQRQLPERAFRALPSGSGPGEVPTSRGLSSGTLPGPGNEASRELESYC

T2: human glucagon-like peptide-2 receptor (human, UniProt O95838 1-553)
T2 sequence (looked up): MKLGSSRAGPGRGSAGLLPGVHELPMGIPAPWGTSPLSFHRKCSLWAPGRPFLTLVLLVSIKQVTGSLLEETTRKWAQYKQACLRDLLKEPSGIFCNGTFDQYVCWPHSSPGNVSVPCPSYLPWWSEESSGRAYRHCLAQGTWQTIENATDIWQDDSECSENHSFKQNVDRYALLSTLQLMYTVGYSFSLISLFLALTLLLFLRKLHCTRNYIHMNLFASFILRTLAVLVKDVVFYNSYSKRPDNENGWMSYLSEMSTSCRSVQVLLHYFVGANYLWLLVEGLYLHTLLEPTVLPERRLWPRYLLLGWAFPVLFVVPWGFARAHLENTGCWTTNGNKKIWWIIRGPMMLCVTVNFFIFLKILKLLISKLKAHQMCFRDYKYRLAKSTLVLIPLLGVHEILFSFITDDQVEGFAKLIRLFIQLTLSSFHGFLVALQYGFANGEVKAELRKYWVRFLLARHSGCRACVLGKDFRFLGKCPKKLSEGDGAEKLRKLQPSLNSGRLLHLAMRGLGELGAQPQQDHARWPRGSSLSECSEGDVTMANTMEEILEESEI


What was measured:
[1] = biological target: T1, human glucose-dependent insulinotropic …; experiment: cell-based or functional assay
[2] = biological target: T2, human glucagon-like peptide-2 receptor; experiment: cell-based or functional assay

Row | Binder | Efficacy GIPR [1] [%] | Efficacy GLP-2R [2] [%] | EC50 (nM) GLP-2R [2] [nM] | logEC50 GLP-2R [2] | EC50 (nM) GIPR [1] [nM]
1 | Palmitoyl-HADGTFISDYSTILDNLAARDFINWLIQTKIT [Compound no. 2] | 80 | 59 | – | – | –
2 | H[Aib]DGTFISDYK([γGlu-Palmitoyl])TILDNLAARDFINWLIETKITK-OH (N-terminus assumed; SMILES CCCCCCCCCCCCCCCC(=O)N[C@@H](CCC(=O)NCCCC[C@H](NC(=O)[C@H](Cc1ccc(O)cc1)NC(=O)[C@H](CC(=O)O)NC(=O)[C@H](CO)NC(=O)[C@@H](NC(=O)[C@H](Cc1ccccc1)NC(=O)[C@@H](NC(=O)CNC(=O)[C@H](CC(=O)O)NC(=O)C(C)(C)NC(=O)[C@@H](N)Cc1c[nH]cn1)[C@@H](C)O)[C@@H](C)CC)C(=O)N[C@H](C(=O)N[C@H](C(=O)N[C@@H](CC(C)C)C(=O)N[C@@H](CC(=O)O)C(=O)N[C@@H](CC(N)=O)C(=O)N[C@@H](CC(C)C)C(=O)N[C@@H](C)C(=O)N[C@@H](C)C(=O)N[C@@H](CCCNC(=N)N)C(=O)N[C@@H](CC(=O)O)C(=O)N[C@@H](Cc1ccccc1)C(=O)N[C@H](C(=O)N[C@@H](CC(N)=O)C(=O)N[C@@H](Cc1c[nH]c2ccccc12)C(=O)N[C@@H](CC(C)C)C(=O)N[C@H](C(=O)N[C@@H](CCC(=O)O)C(=O)N[C@H](C(=O)N[C@@H](CCCCN)C(=O)N[C@H](C(=O)N[C@H](C(=O)N[C@@H](CCCCN)C(=O)O)[C@@H](C)O)[C@@H](C)CC)[C@@H](C)O)[C@@H](C)CC)[C@@H](C)CC)[C@@H](C)CC)[C@@H](C)O)C(=O)O) [Compound no. 32] | 89 | 84 | 10 | 8 | –
3 | Ac-H[Aib]DGTFISDYK([γGlu-Palmitoyl])T[Aib]LDNLAARDFINWLIQTKITKNDWKHNITQ-OH [Compound no. 38] | 81 | 89 | – | – | –
4 | Palmitoyl-HADGTFISDYSTILDNLAARDFINWLLAQKITK [Compound no. 46] | 98 | 82 | – | – | –
5 | H[Aib]DGTFISDYK([γGlu-Palmitoyl])T[Aib]LDALAARDFIEWLIQTKITK-OH (N-terminus assumed; SMILES CCCCCCCCCCCCCCCC(=O)N[C@@H](CCC(=O)NCCCC[C@H](NC(=O)[C@H](Cc1ccc(O)cc1)NC(=O)[C@H](CC(=O)O)NC(=O)[C@H](CO)NC(=O)[C@@H](NC(=O)[C@H](Cc1ccccc1)NC(=O)[C@@H](NC(=O)CNC(=O)[C@H](CC(=O)O)NC(=O)C(C)(C)NC(=O)[C@@H](N)Cc1c[nH]cn1)[C@@H](C)O)[C@@H](C)CC)C(=O)N[C@H](C(=O)NC(C)(C)C(=O)N[C@@H](CC(C)C)C(=O)N[C@@H](CC(=O)O)C(=O)N[C@@H](C)C(=O)N[C@@H](CC(C)C)C(=O)N[C@@H](C)C(=O)N[C@@H](C)C(=O)N[C@@H](CCCNC(=N)N)C(=O)N[C@@H](CC(=O)O)C(=O)N[C@@H](Cc1ccccc1)C(=O)N[C@H](C(=O)N[C@@H](CCC(=O)O)C(=O)N[C@@H](Cc1c[nH]c2ccccc12)C(=O)N[C@@H](CC(C)C)C(=O)N[C@H](C(=O)N[C@@H](CCC(N)=O)C(=O)N[C@H](C(=O)N[C@@H](CCCCN)C(=O)N[C@H](C(=O)N[C@H](C(=O)N[C@@H](CCCCN)C(=O)O)[C@@H](C)O)[C@@H](C)CC)[C@@H](C)O)[C@@H](C)CC)[C@@H](C)CC)[C@@H](C)O)C(=O)O) [Compound no. 33] | 101 | 97 | – | – | –
6 | {C16 diacid}-HADGTFISDYST[Aib]LDNLAARDFINWLIQTKITKNDWKHNITQ [Compound no. 39] | 99 | 78 | 1 | 9 | –
7 | Ac-H[Aib]DGTFISDYK([γGlu-Palmitoyl])T[Aib]LDNLAARDFINWLIQTKITK-OH (SMILES CCCCCCCCCCCCCCCC(=O)N[C@@H](CCC(=O)NCCCC[C@H](NC(=O)[C@H](Cc1ccc(O)cc1)NC(=O)[C@H](CC(=O)O)NC(=O)[C@H](CO)NC(=O)[C@@H](NC(=O)[C@H](Cc1ccccc1)NC(=O)[C@@H](NC(=O)CNC(=O)[C@H](CC(=O)O)NC(=O)C(C)(C)NC(=O)[C@H](Cc1c[nH]cn1)NC(C)=O)[C@@H](C)O)[C@@H](C)CC)C(=O)N[C@H](C(=O)NC(C)(C)C(=O)N[C@@H](CC(C)C)C(=O)N[C@@H](CC(=O)O)C(=O)N[C@@H](CC(N)=O)C(=O)N[C@@H](CC(C)C)C(=O)N[C@@H](C)C(=O)N[C@@H](C)C(=O)N[C@@H](CCCNC(=N)N)C(=O)N[C@@H](CC(=O)O)C(=O)N[C@@H](Cc1ccccc1)C(=O)N[C@H](C(=O)N[C@@H](CC(N)=O)C(=O)N[C@@H](Cc1c[nH]c2ccccc12)C(=O)N[C@@H](CC(C)C)C(=O)N[C@H](C(=O)N[C@@H](CCC(N)=O)C(=O)N[C@H](C(=O)N[C@@H](CCCCN)C(=O)N[C@H](C(=O)N[C@H](C(=O)N[C@@H](CCCCN)C(=O)O)[C@@H](C)O)[C@@H](C)CC)[C@@H](C)O)[C@@H](C)CC)[C@@H](C)CC)[C@@H](C)O)C(=O)O) [Compound no. 34] | 75 | 103 | – | – | 10
8 | H[Aib]DGTFISDYK([γGlu-Decanoyl])TILDKLAARDFIEWLIATKITK-OH (N-terminus assumed; SMILES CCCCCCCCCC(=O)N[C@@H](CCC(=O)NCCCC[C@H](NC(=O)[C@H](Cc1ccc(O)cc1)NC(=O)[C@H](CC(=O)O)NC(=O)[C@H](CO)NC(=O)[C@@H](NC(=O)[C@H](Cc1ccccc1)NC(=O)[C@@H](NC(=O)CNC(=O)[C@H](CC(=O)O)NC(=O)C(C)(C)NC(=O)[C@@H](N)Cc1c[nH]cn1)[C@@H](C)O)[C@@H](C)CC)C(=O)N[C@H](C(=O)N[C@H](C(=O)N[C@@H](CC(C)C)C(=O)N[C@@H](CC(=O)O)C(=O)N[C@@H](CCCCN)C(=O)N[C@@H](CC(C)C)C(=O)N[C@@H](C)C(=O)N[C@@H](C)C(=O)N[C@@H](CCCNC(=N)N)C(=O)N[C@@H](CC(=O)O)C(=O)N[C@@H](Cc1ccccc1)C(=O)N[C@H](C(=O)N[C@@H](CCC(=O)O)C(=O)N[C@@H](Cc1c[nH]c2ccccc12)C(=O)N[C@@H](CC(C)C)C(=O)N[C@H](C(=O)N[C@@H](C)C(=O)N[C@H](C(=O)N[C@@H](CCCCN)C(=O)N[C@H](C(=O)N[C@H](C(=O)N[C@@H](CCCCN)C(=O)O)[C@@H](C)O)[C@@H](C)CC)[C@@H](C)O)[C@@H](C)CC)[C@@H](C)CC)[C@@H](C)CC)[C@@H](C)O)C(=O)O) [Compound no. 31] | 89 | 90 | – | – | –
9 | Decanoyl-H[Aib]DGTFISDYST[Aib]LDNLAARDFINWLIQTKITK-OH (SMILES CCCCCCCCCC(=O)N[C@@H](Cc1c[nH]cn1)C(=O)NC(C)(C)C(=O)N[C@@H](CC(=O)O)C(=O)NCC(=O)N[C@H](C(=O)N[C@@H](Cc1ccccc1)C(=O)N[C@H](C(=O)N[C@@H](CO)C(=O)N[C@@H](CC(=O)O)C(=O)N[C@@H](Cc1ccc(O)cc1)C(=O)N[C@@H](CO)C(=O)N[C@H](C(=O)NC(C)(C)C(=O)N[C@@H](CC(C)C)C(=O)N[C@@H](CC(=O)O)C(=O)N[C@@H](CC(N)=O)C(=O)N[C@@H](CC(C)C)C(=O)N[C@@H](C)C(=O)N[C@@H](C)C(=O)N[C@@H](CCCNC(=N)N)C(=O)N[C@@H](CC(=O)O)C(=O)N[C@@H](Cc1ccccc1)C(=O)N[C@H](C(=O)N[C@@H](CC(N)=O)C(=O)N[C@@H](Cc1c[nH]c2ccccc12)C(=O)N[C@@H](CC(C)C)C(=O)N[C@H](C(=O)N[C@@H](CCC(N)=O)C(=O)N[C@H](C(=O)N[C@@H](CCCCN)C(=O)N[C@H](C(=O)N[C@H](C(=O)N[C@@H](CCCCN)C(=O)O)[C@@H](C)O)[C@@H](C)CC)[C@@H](C)O)[C@@H](C)CC)[C@@H](C)CC)[C@@H](C)O)[C@@H](C)CC)[C@@H](C)O) [Compound no. 44] | 110 | 100 | – | – | –
10 | {C16 diacid}-H[Aib]DGTFISDYST[Aib]LDNLAAKDFINWLIQTKITKNDWKHNITQ-OH [Compound no. 42] | 91 | 93 | – | – | –
11 | {C16 diacid}-H[Aib]EGTFISDYST[Aib]LDALAARDFINWLIQTKITKNDWKHNITQ-OH [Compound no. 41] | 91 | 74 | – | 8.8 | –
12 | {C16 diacid}-H[Aib]DGTFISDYST[Aib]LDNLAARDFINWLIQTKITKNDWKHNITQ-OH [Compound no. 40] | 94 | 96 | – | 9 | 1
